± gives the standard deviation of the averaged measurements.
What follows are sequences tested on Saccharomyces cerevisiae (assay: protein stability index of tFT-peptide fusion (C-terminal peptide) (PSI (0-1 scale)); higher = more stable (slower turnover)). Settings: genetic background: wild type; temperature: 30 C.
Description: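 Multiplexed protein stability (MPS) profiling in S. cerevisiae. Random 12-aa peptides (tFT-X12 library) are fused to the C-terminus of a sfGFP-mCherry tandem fluorescent timer, after mCherry and a GGGS linker. Cells are FACS-sorted into 8 mCherry/sfGFP bins and deep-sequenced. The protein stability index (PSI) is the read-weighted bin average, scaled from 0 (unstable) to 1 (stable). Only peptides with >10 reads are reported; cells were grown at 30 °C in SC-His with glucose.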
GTGEMNDKDQEE gave a protein stability index of 0.798 ± 0.12.
For GTKEYKKNRKII, the protein stability index was 0.653 ± 0.03.
For GTQPAAGNTPWA, the protein stability index was 0.703 ± 0.029.
Sequence GTSPSSVRPLCG has a protein stability index of 0.7043 ± 0.0069.
GTTHRSKRLRRK gave a protein stability index of 0.768 ± 0.035.
Sequence GTVEGAVQGLVE has a protein stability index of 0.718 ± 0.045.
In the case of GTVRGVVRGRGG, the protein stability index is reported as 0.664 ± 0.012.
For GTVSEGAMSVGF, the protein stability index was 0.809 ± 0.11.
GTVWQSNSGAAT gave a protein stability index of 0.68 ± 0.028.
With GTWAGGGWSCES the protein stability index was 0.696 ± 0.039.
Work on GTYNIGVFAPEN yielded a protein stability index of 0.653 ± 0.032.
Sequence GVACEGRGGRCW has a protein stability index of 0.689 ± 0.012.
In the case of GVANSPTVRERT, the protein stability index is reported as 0.666 ± 0.018.
GVCASGAGSVGG gave a protein stability index of 0.662 ± 0.029.
GVCLQGRRASGE showed a protein stability index of 0.693 ± 0.091.
Sequence GVCQSEKSARGI has a protein stability index of 0.664 ± 0.05.
GVDGLLRVYVME was tested, and the protein stability index was 0.674 ± 0.029.
Sequence GVEGASVLGWGR has a protein stability index of 0.704 ± 0.19.
Sequence GVGAPRLPPRPG has a protein stability index of 0.696 ± 0.012.
GVGEWRSGVGVG gave a protein stability index of 0.592 ± 0.043.
GVGFGWGGVWME showed a protein stability index of 0.691 ± 0.0073.
In the case of GVGGEGRNDALI, the protein stability index is reported as 0.635 ± 0.037.
Work on GVGGEIGRGGEY yielded a protein stability index of 0.676 ± 0.035.
With GVGGEPDLADWG the protein stability index was 0.762 ± 0.023.
GVGGGGCVLVRG was tested, and the protein stability index was 0.723 ± 0.018.
In the case of GVGGGGIGVGMG, the protein stability index is reported as 0.7262 ± 0.0018.
GVGGPLRPGPCQ showed a protein stability index of 0.758 ± 0.24.
For GVGGVARGERIP, the protein stability index was 0.678 ± 0.0085.
Sequence GVGLSGEGGLGR has a protein stability index of 0.642 ± 0.015.
GVGQGGPVVVGR showed a protein stability index of 0.665 ± 0.024.
In the case of GVGREGGCWRTG, the protein stability index is reported as 0.702 ± 0.11.
GVGRPSDGPFRA gave a protein stability index of 0.666 ± 0.047.
Work on GVGSCVILRLRN yielded a protein stability index of 0.557 ± 0.02.
GVGWGDVWGCGE was tested, and the protein stability index was 0.741 ± 0.038.
For GVGWWLGLGVIW, the protein stability index was 0.692 ± 0.029.
In the case of GVIYFSLSSFPL, the protein stability index is reported as 0.655 ± 0.14.
GVLGGAGCGVVL gave a protein stability index of 0.731 ± 0.023.
GVLPYRYRGLVL was tested, and the protein stability index was 0.64 ± 0.16.
GVLRAWARLWGN gave a protein stability index of 0.599 ± 0.039.
With GVLRICFGGLVS the protein stability index was 0.729 ± 0.031.
In the case of GVLRIRIGLGRG, the protein stability index is reported as 0.653 ± 0.028.
GVLRPLVGALGM showed a protein stability index of 0.609 ± 0.0083.
GVNMGKIYKIRN gave a protein stability index of 0.649 ± 0.03.
GVPPFAPPPPPH showed a protein stability index of 0.703 ± 0.015.
Work on GVPPTPTHPCTC yielded a protein stability index of 0.758 ± 0.072.
GVPYSPKSHRDH showed a protein stability index of 0.643 ± 0.047.
For GVRERSCIKKAR, the protein stability index was 0.604 ± 0.058.
For GVRGVSHMDGGD, the protein stability index was 0.758 ± 0.16.
GVSAPRFPGALA showed a protein stability index of 0.69 ± 0.01.
In the case of GVSLREASVAAI, the protein stability index is reported as 0.7104 ± 0.0055.
GVSVICGFPVSC was tested, and the protein stability index was 0.732 ± 0.056.
With GVSWSWGDLAVL the protein stability index was 0.756 ± 0.016.
In the case of GVTGGGVVNRGV, the protein stability index is reported as 0.689 ± 0.088.
Sequence GVVIGWAGYKGT has a protein stability index of 0.671 ± 0.043.
In the case of GVVLDVRCVGLF, the protein stability index is reported as 0.661 ± 0.021.
For GVVRSSRRYSFR, the protein stability index was 0.705 ± 0.034.
Work on GVVSRGGRRLGV yielded a protein stability index of 0.7011 ± 0.0035.
GVWPWWGWSCCF gave a protein stability index of 0.782 ± 0.1.
GVYNGGIPQVLQ gave a protein stability index of 0.6843 ± 0.0028.
Work on GVYSVACVSGSV yielded a protein stability index of 0.64 ± 0.014.
For GWAFGVRGMIKK, the protein stability index was 0.74 ± 0.043.
GWAVGGGGGRGR was tested, and the protein stability index was 0.617 ± 0.057.
GWCAPLGLLLVL gave a protein stability index of 0.539 ± 0.031.
Work on GWCGGLWRFGWG yielded a protein stability index of 0.723 ± 0.092.
With GWDCKGNDCWNG the protein stability index was 0.693 ± 0.055.
GWDQSGVVFVCG gave a protein stability index of 0.605 ± 0.017.
Sequence GWDSGHLVVMEI has a protein stability index of 0.715 ± 0.033.
GWESERWSTLHK was tested, and the protein stability index was 0.763 ± 0.024.
For GWEVGGGRLGVV, the protein stability index was 0.716 ± 0.11.
In the case of GWGCGGGGAWSG, the protein stability index is reported as 0.767 ± 0.018.
GWGFLGGTVAAV showed a protein stability index of 0.697 ± 0.035.
GWGGLFGCWVCG gave a protein stability index of 0.656 ± 0.015.
In the case of GWGIFRISSFGT, the protein stability index is reported as 0.713 ± 0.018.
In the case of GWGPSSAGGAGG, the protein stability index is reported as 0.752 ± 0.12.
For GWGWGSMDLRDR, the protein stability index was 0.6919 ± 0.0024.
For GWIGVFGLFGCG, the protein stability index was 0.752 ± 0.083.
Sequence GWKLGAVRRGVI has a protein stability index of 0.706 ± 0.015.
With GWLGGGVRLGRL the protein stability index was 0.714 ± 0.067.
GWRACWVRAPRW showed a protein stability index of 0.708 ± 0.018.
Work on GWRRSWVWDVGG yielded a protein stability index of 0.699 ± 0.027.
GWRSGGVYDGNI gave a protein stability index of 0.6572 ± 0.0027.

— the supplement of paper PMC10724198
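Also: PSI is a weighted mean of sequencing reads over stability bins, variants kept only with over 10 reads, mCherry proximal and sfGFP distal, peptide attached via GGGS linker.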
